Tests used:
Experiment in all cases: competition HLA binding assay: soluble HLA, labeled control peptide, capture on anti-human DR antibody, time-resolved fluorescence
[1] = target: T1, HLA DRB1*0101 (human)
T1 construct: Described only as a soluble HLA molecule; also called soluble HLA molecule

[2] = target: T2, HLA DRB1*0301 (human)
T2 construct: Described only as a soluble HLA molecule; also called soluble HLA molecule

[3] = target: T3, HLA DRB1*1301 (human)
T3 construct: Described only as a soluble HLA molecule; also called soluble HLA molecule

[4] = target: T4, HLA DRB1*0701 (human)
T4 construct: Described only as a soluble HLA molecule; also called soluble HLA molecule

[5] = target: T5, HLA DRB1*0401 (human)
T5 construct: Described only as a soluble HLA molecule; also called soluble HLA molecule

[6] = target: T6, HLA DRB1*1101 (human)
T6 construct: Described only as a soluble HLA molecule; also called soluble HLA molecule

Measured: binding result

B1: SEQ ID NO 114 (peptide)
peptide: EEQYNSTYTVVSVLTVLHQD
notes: L-amino acid Tregitope, assayed alongside its retro-inverso counterpart
binds: [1] | [2] | [3] | [4] | [5] | [6]

B2: SEQ ID NO 115 (peptide)
peptide: ILTIHFTGHSFIYGK
notes: as for B1
binds: [1] | [2] | [3] | [4] | [5] | [6]

— patent US20240173377A1 (EPIVAX, published 2024)
